# In the domain aggregation screens of Martell et al. (2025):
# Test: soluble fraction after stress (log2 fold change); higher = more stays soluble; pooled small domains, quantitative proteomics
# Conditions: stress: 50 degC
# Method in brief: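 After stress at 50°C, the amount of each protein still soluble was measured. This was done on pooled custom libraries of small protein domains, using high-throughput quantitative proteomics. The figure given is a base-two log fold change and stands for aggregation propensity, with higher values meaning more protein stays in solution.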
row,Sequence,soluble fraction (log2)
1,HMQRSVKNNDTVQVHYTGKLTNGQIFDSSIDKQPLEFQLGQGQIIPGFEKGLIDMTVSEKKTITIPEAEAY,0.1
2,HMDMTPEEFLAWARHKPFGDPFPKTQTVTFLVPLLGVSRTNIFTWISGKVNPSKTSLLLMEALKRENR,-0.289
3,HMEGSLQEDKVKEYQDRFKEELSNDLNTANSITVLYDLIKDDTLNGTTKRYLIEDFDKILSLDLIKE,0.0632
4,HMNFRESVLAVFENSKQKYLDFDEIAKRLGLTRGFDRQALASMLNELTRNDEIVFTKRNKYTLPEN,0.125
5,HMNNQMTFSKFLNEVDAGRVVEVEIQGNNIKGVLADGNRFNTFSPNYPNLVEKLSDKGVSITAAPK,0.0484
6,HMGVTVDEVHRNFESGMNVVHKKFGAGVVDSFDEGKIRINFDGVIKVFIADVLINSGMLESVSYTH,-0.212
7,HMISAEPVGEDLFKVAFPFLGGSTVFEKTIEQFIEEHPSKRIDHIYTVPNPLRLKKADALIFYIITEEK,-1.02
8,HMGQISLSVNAIPEKAEVILDGNSIGNTPIRKNTITPGSHMFEIEKKGYAPISYDIYVNPSKAINLDFFM,-0.63
9,HMKPGTIVTGVVVDIKSDVVVVNAGLKSEGIVPIEQFRNDRGELEVAIGDEVKVALDSLENGFGETVLSRE,0.0252
10,HMTISDEAMQAGRDAFIQALVAMGAEKNADAMASIEKALSADPGNKEYLATRDLIKKSMGMKK,0.44
11,HMTGDNQTIGGGGFHHVAIRAHDFDASVKFYGETLGFREKIAWGEGDKRAIMMDTGDGNYIEIF,0.197
12,HMKNNYQYIVDQIKQLILDGELIVGDRLPSERDLSEMYQVSRASVREALKALETIGLLESRHGGGNYIVNH,-0.671
13,HMYGSLGEYELAAVQWIYGKGKITTRELSSLIGKGLTLSSKTLRGLAAKGILEWHGNSKNDPSQFYSLP,-2.39
14,HMGDTHKVPGVKGVNVEQAMDMLSRLDLKAVVIDSVYVKDKKLGTVIEQNPVEGSVVKPGRPIYLVVNSRS,0.242
15,HMDEVLDQFVRGQIYGYIRANPGDIYSSIRDNLGLKNGVTTYHLDVLAREEYVYSEIDGTNRRFYPSGWEE,-3.2
16,HMSQLYINATDDGWVIGNLPADAREVLLTTLGGQVVARYHVTAPSLRVKAPRKGVYIVSVETA,-1.12
17,HMNVNTHKTLILNSTFQPLSLATPQRALALLFSKKINVLKESDIKLRSVGQSVAIPKVAVLTYFVKA,-0.291
18,HMGASTQLVEIKNAYENGEWQNVIDLAGKLHEKYNGSEEDKEAQEMAKNSQSKLDEAAAAKAAEEA,-0.033
19,HMSMEIQEIIRQLREKNDWSQEDMAERVGLSKNGYAKIERGETNLNLERLEQIANLFDLSVIDLIEMS,-0.796
20,HMTKRTEPSILQNFDTEIAELIAKNRGISIMDALRIFLASKTHEMLENDEMKLWYFSPLAVFDMWENE,0.088
21,HMRAPIGFRISNRRKSLKISQVALARLVGISPSYLNLIENNKRDVGGALLQRVALHLNIDIDDL,-3.02
22,HMEPVQFIQFKIPDGHPWSGQLLREVRLPPGTLVVLLKHDGKNIIPNGETPLLAGDSVILSAASPT,-0.197
23,HMWMTAQDFRNSSLPWSATTSYNEGQSVRVVDGSNTYYYIAIVKTQPGQSPTTHPTSWREVDA,-0.99

row,Sequence,soluble fraction (log2)
1,HMTDSLELADLLRRAIITGEYKPRERLVEMELAQKYSVSRTPVREALKHLEALGLVKMERYKGAMVAD,-0.46
2,HMSIGLEGFVGKLGISTSDLRPSGWGEFDAKKLFVVTEGEFVDRKEKIEILSVDGNRILVRKIS,-0.751
3,HMEDIPENIRYKFLLKELKENEHLNILDKENIARKLTEIDLPELEKELLENEILNSTIKDYLGIKLV,0.173
4,HMTIENTDTFLETLWEQVQRASVDENGIITSRVLIWDEGTKLDEILSWFDKRHSLGALYLQFG,-2.47
5,HMGMAQELMESRLTAVFTSGKDQLAVLQRKDGSTLKLGADSKPWRIESFDGRKAVFVSADQQRVERLL,-0.209
6,HMKQNNYATKKELNFFVSRLISLLSYRDFFNPIEKKESMINNIEAIFTRSSLTSQELRTLHGIISNLVE,-3.07
7,HMNQEIELLLREPDFTSAARLAMAINERFTNSARAIDPTSVKVRMPEGLDQASVDFVARLEDIEMSPDT,-0.0281
8,HMTPEPVREALTFQEGRVFALAAKNMTNAEIAQSLSLKLKTVENYMSIIYQKLALKNRYELLVYARKSGV,-0.631
9,HMQSDQLSDREREILRLIGSGRTNQEISQELQVSGSTVRTHLQHILDKLGLENRNQAVLYAIRIGLAAPP,-0.125
10,HMEFQSIGGKIRIGREREHLTQAELAQKLSVTRQAVSNWERDKTLPDIYMIREIAEIFGLTLDEFMEGAKK,-0.672
11,HMDTIASESVRNRIEELISNENPKKPLSDQALVKMLQEFDIKIARRTVAKYREMLKIPPSSKRKQV,0.0652
12,HMKVTTGIDGLIGEEGVALSDFSGKGKIMVHGEIWNAEFSGEVKKGEVLLVEKANGMTLITRKKN,0.561
13,HMSGHEVMVQRITAIIAELYQYGFVSRKKMMDEFNISERTLYRDLNRLGDRIVPDGDGIYRLAPAYA,-1.55
14,HMFLSQQDINRANAASVTDMGDIIRRTFERNAAEINGLELSDAEKKDAVKQMATLATTALKTAAGAVNPY,-0.132
15,HMTTYSVDLGDIRAVADSDGKLVELTLHAAVTTHYSHSELADRLNLAFTALREEAQADYETRY,0.127
16,HMDLKENQHILQISNKGVQMGNVLKDLIIQTLNITNGNQIKAAKLLAISRAKLRYRIEQLGINISGKNI,-0.215
17,HMAQLSDDEQAIIDTITRRGDATMSELIASVNVSTPRLMSMLIDMEFRSLITALPGGRYQIRLIN,-0.912
18,HMEDEVSSSAAYQALLEKGVSKTLARSWVIDYGEAYVLDKVDLTTSQAARGKIKSSTAGFLKAAIEEDFHN,-0.244
19,HMNDIQIILQEAVARLPKKQQLVFNMKYFDHLKYQEISEILGTSVGGLKASYFQAVKKIENYIINKH,-2.38
20,HMSVDDYLKFSGSGTYWNTQDRGKTYLVNGQQRPLRDKEYLPDVMHRHVIDFITKHRDRPFYIYYSM,0.0643
21,HMESPLNPTDVRRAAMDLLARREHGVEELRLKLKRRFGREEDFETIATEQLQRLVDEDLLSDTRF,-0.165
22,HMEMKVIPFNQMTRDQFDQLDRFLGRLAAAQAMGSLRLTKAQQNYFLNQVKQLDLYRKRILN,-0.787
23,HMLTAPMPGIVRQVNVDTGQKVRKGQPLMVLEAMKMEHQIIAPQAGKIEAIHYNEGDRVEMGSVLISIF,-0.0961

row,Sequence,soluble fraction (log2)
1,HMEALNIEQKKVEIINVLLEKGKGKGRLSYKEISDQIDTVELDKDQMDELYETLMTNGIEIV,0.114
2,HMGVSVNVQPAILDWAMQKAQMGNAGSSVIEMIAKWISGEKAPTFNQIEDVSKKISIPFGFFFLKEPPIE,-0.951
3,HMEKTLAERVNDILAEIKMTKQELAMQLNISRSAVSQYLNGKYSSNPEAIEARLRDFVSSYDRG,-0.0754
4,HMDNEIEQIVEDLNLTLSSLKYTKNQIESILPLIIKEIDDFKKKEKNISFENLLKLAMNHLDND,-0.269
5,HMFHGEGVQANNIQAYIVLKMAAVNGAEDALDTADEVSEKMSREDLETATQVLGQIFRKYLMELQSA,-1.2
6,HMKYLREEDYLPIGSIIRLDDRNFRVDHVNFMFKSVSLQDMDLTNSGQPIFRSESLPHIRELYEQQQNELV,-1.19
7,HMRKKDGEAYVLPRPLKKGDSVLIYDIDKKGTVLQPPEKGGKTALIQAGIIQTRVPVSNLRLLE,0.383
8,HMKEIKAPNKINAHLIEEWRSQHPTELFPEEKVDLIYYKGEEYYFVIEEKNELGEIEEWYFAYDGGIDYV,0.106
9,HMNKPTSMYKLRLLLKHYHAGASKRWMADVLDISRSTLNVYLARIESLNLAFEEWEALSDLEVSRLLINP,-3.05
10,HMENNIILNYVKDNLNITEKDAKDLIELLGSDYYHIKNETNKIAAFLDGQPYSFEKIKNLISIDKEY,0.0808
11,HMATIADILAEHKDKEGPLLPVLHDVQKMFGHVSEEAMREIAQALNLTRAEVYGVVSFYHDFRKEVE,-0.975
12,HMPKMDGLTVMEQVNQDHFVNKRPYFIVITAVGQEKITEDAFNKGANYYVMKPFNNNMLLERIKSVRK,0.294
13,HMSKIRSEINKFSSDADKPILEWLFERYHWASQWRFVARFSEQRYGVLSYEINRVWEPTIEGRALYDQL,-2.34
14,HMETWDQAYETIKQNILNLTYPPGMPLTEAKLAEELGMSRSPVRTALRMLQTDGLIVTDYYKSMTVKEI,-1.71
15,HMSRGTRIDPNWQPSPEDRALARAEGFSDPEIDREALQFRDYWLGASGSNAVKLDWSATWRNWVRRAATNF,0.0774
16,HMARKISVEALGKYFPNSPMLAAAVAVTGVMKKDEFIHEMRASYKHKFAKKPEVIDGNMKALTMTFEA,-0.126
17,HMTTEPYILTRMPDGSIKAEPNLNYKGPEQKPGSNIQVKGADGRIYLVPIDGQGKPGKPQLVD,0.116
18,HMGWEDLVGKTAVVKVALAPVGMVFFRGEFWSAISETGRIEPGEEVTISRIDGLKLYVTKKRIM,-0.607
19,HMNEYIVSAEQEGMRLDVFLTEQMEGSRSYIQSLIKGGHVTVGDKVGKANLRLTPDTVIHVEIPEPE,0.0524
20,HMPAERLSMRKIYEILRLKYGHGLSNREVALSVSVSRSTVADYLLRAQAAGLSWPLPDGLDETGLEQRLFP,-2.02
21,HMTFNEPSPKEIMDYSLSRGYKVDADAFIDFYRGKAKAYGKEGLWLDGRGRLVKDWRAKLRVVWFKDENKL,-1.22
22,HMDIRMLLSDREEEIMILLSKGLSISEAANRMQIGQASAATYLNRARRKLKAETVRQAVAIWTGD,-1.75
23,HMTLTIEDGYVNAKLKTTVEGLAEDSTIKVDSIEYTNAGKNDILTVFVEDKPYRVEKYKINIAPEDS,0.0185
